The values that follow come from PMC8442874.

In this experiment the target is Soc-SpyCatcher fusion protein (displayed on T4 phage: T4-SpyCatcher phage) (bacteriophage T4). Briefly: co-sedimentation.

Substance “S-ecto-6P-SpyTagged trimer (prefusion-stabilized hexa-Pro SARS-CoV-2 spike ectodomain with C-terminal SpyTag) (from UniProt P0DTC2 14-1208) (domain or fragment)” showed a copies per capsid (S-trimers per phage capsid) of 100.
